± gives the standard deviation.
Assay: protein stability index of a GFP-peptide fusion (GPS, HEK-293T) (PSI 1-6); higher = more stable
Details: c terminus: a fixed tail appended
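Further: 24-mer peptide tiles fused after GFP, lentivirally expressed, FACS-sorted into six equal bins by GFP/DsRed ratio, decoded by Illumina sequencing, PSI is the read-weighted mean bin number.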

| Sequence | protein stability index (treatment: DMSO) | protein stability index (treatment: MLN4924 1 uM, 8 h) |
| --- | --- | --- |
| PGSIIGPQQHFLEEKQASLWVQGD [CDC14A] | 4.04 ± 0.37 | 4.14 ± 0.4 |
| PHKGLNLHPLLSGRLGRWLRSTRF [PCDHGC5] | 2.35 ± 0.23 | 2.13 ± 0.28 |
| PHTVLDRQLLCLIDYYESKIRKIH [CEP70] | 2.46 ± 0.34 | 2.28 ± 0.19 |
| PHYELCTLRGTGATADFADVADDF [NETO1] | 4.69 ± 0.1 | 4.59 ± 0.25 |
| PICSANHKESKMTIFEKENFIGRQ [CRYBA1] | 3.34 ± 0.27 | 3.46 ± 0.18 |
| PILKVQYHPRDQNKVLVCPMKSAP [RBBP5] | 2.99 ± 0.17 | 3.13 ± 0.14 |
| PIRNRAFYMEEGVPYCERDYEKMF [PDLIM7] | 3.3 ± 0.31 | 3.43 ± 0.34 |
| PKCSCGQLAAVHLSKSRTDYQPTQ [RNF180] | 2.55 ± 0.17 | 2.63 ± 0.35 |
| PKGSKGKEKDSPFKPKLYKGDRGL [RBBP5] | 3.86 ± 0.89 | 4.34 ± 0.46 |
| PKTVPSHVFSELWDLSEAWMQANY [ELOA2] | 2.6 ± 0.26 | 2.56 ± 0.41 |
| PLCNFNIIESFTELARIVLLRHRM [RAB40A] | 2.6 ± 0.21 | 2.87 ± 0.79 |
| PLCNFNVIESFTELSRIVLMRHGM [RAB40C] | 2.94 ± 0.45 | 2.73 ± 0.41 |
| PLESIDHSVTGFLCEPDPVHFSEA [ALG2] | 4.48 ± 0.15 | 4.48 ± 0.025 |
| PLHELITMNRRVCVLMLLAAWIGG [OR4A15] | 2.84 ± 0.27 | 2.92 ± 0.26 |
| PLRAAHRRFNFDTDRPLLSTLEES [SMG5] | 3.94 ± 0.14 | 3.94 ± 0.18 |
| PLRLFLIIANTMAFQNDVYEWARD [SCD] | 2.75 ± 0.61 | 2.87 ± 0.61 |
| PLRNDVDKRGETTSASLLNAGLSH [SLC2A12] | 4.55 ± 0.32 | 4.66 ± 0.22 |
| PLRVDLILENTSKVPAPKDVLAHQ [NOP53] | 3.28 ± 0.036 | 3.5 ± 0.29 |
| PLSPAFFGEDGIFRHDRLRFRDFV [PBXIP1] | 2.77 ± 0.16 | 2.91 ± 0.39 |
| PLYTLIDVLKYSYVRLVCKDVRAP [ZSWIM9] | 2.84 ± 0.25 | 3.02 ± 0.63 |
| PPLEDFEVLDGVEDAEGEEEEEEE [FKBP8] | 5.69 ± 0.27 | 5.61 ± 0.34 |
| PPTQLEVNLEEIPGEGLLISWAFT [C2CD2L] | 2.75 ± 0.41 | 3.01 ± 0.5 |
| PPVMPGMPPGLHHQRKYTQSFCGE [ZNF207] | 3.76 ± 0.15 | 3.75 ± 0.14 |

| Sequence | protein stability index (treatment: DMSO) | protein stability index (treatment: MLN4924 1 uM, 8 h) |
| --- | --- | --- |
| PQLSPGSGTPQAGTPSPSRSRDSN [RTN2] | 5.2 ± 0.14 | 5.27 ± 0.18 |
| PQQQHHKAKRNRTCRPPSSSESSS [ANKRD17] | 4.86 ± 0.16 | 4.92 ± 0.29 |
| PRAGKEESGVSVSNSQPTNESHSI [SLC29A1] | 5.33 ± 0.25 | 5.26 ± 0.27 |
| PRIVEMKKGSNGYGFYLRAGSEQK [PDZK1] | 3.53 ± 0.36 | 3.65 ± 0.54 |
| PRPQSEESWDEEDKRNYPSLELDK [CHGB] | 5.52 ± 0.25 | 5.44 ± 0.25 |
| PSDFFIGAVIEVFGHRFIILDTDE [EFHC1] | 2.32 ± 0.43 | 2.31 ± 0.36 |
| PSKTYPAFLEPDETFIVPDSFLVA [SPSB1] | 2.39 ± 0.33 | 2.45 ± 0.15 |
| PSLEDISCNTWPSMPSYSSCTVTT [TBX5] | 3.18 ± 0.21 | 3.41 ± 0.24 |
| PSRKYISTKAIPEKYGAVREVILK [ZBED1] | 2.87 ± 0.18 | 2.92 ± 0.34 |
| PTPAKRRSSALWSEMLDITMKESL [NET1] | 2.71 ± 0.5 | 3.15 ± 0.48 |
| PTPTSLEVSSPPDTTEEVDHKPKL [PDZK1] | 5.51 ± 0.18 | 5.54 ± 0.38 |
| PVCSALLDPVLQAPGTGPAQTELL [FANCE] | 4.2 ± 0.12 | 4.37 ± 0.12 |
| PVLGSSSGAGHGSGSGSGPGCGSV [SPAG8] | 4.8 ± 0.36 | 4.92 ± 0.49 |
| PVPPPSYFATFYSCTPRMNRRMVG [FAM189A2] | 2.43 ± 0.28 | 2.43 ± 0.33 |
| PVTERQIEREHLIQLRRWQETRGE [TBC1D10A] | 4.25 ± 0.14 | 4.33 ± 0.18 |
| PVVKALFGASAAGGLSPVTNLTVT [CDC25A] | 2.61 ± 0.24 | 2.65 ± 0.2 |
| PYTRSIQILKDTKSITSAMNELQH [TPH1] | 2.61 ± 0.22 | 2.71 ± 0.16 |
| QAQDEVEQERRLSEARLSQRDLSP [FCHSD1] | 5.46 ± 0.28 | 5.31 ± 0.24 |
| QARAELTAQHQRRLAAIAQEKDQE [FBF1] | 5.43 ± 0.23 | 5.2 ± 0.49 |
| QAVSAPGILNRPPAPTATVPAPQP [ZNF207] | 4.76 ± 0.17 | 4.91 ± 0.17 |
| QDSPLDLTVRKSQSEPSEQDGVLD [LCOR] | 5.42 ± 0.32 | 5.35 ± 0.37 |
| QELIETNQQLRNELQLEQSRAANQ [CEP70] | 5.122 ± 0.01 | 5.05 ± 0.26 |
| QEYFERHRWPPVWYLKEEDHYQRV [RHOBTB1] | 3.08 ± 0.24 | 3.08 ± 0.1 |

| Sequence | protein stability index (treatment: DMSO) | protein stability index (treatment: MLN4924 1 uM, 8 h) |
| --- | --- | --- |
| QFALTNGDPLNCHSYLSGYISLLL [NR2F2] | 2.57 ± 0.57 | 2.28 ± 0.3 |
| QFRVIGPRHPIRALVGDEVELPCR [MOG] | 3.63 ± 0.31 | 3.64 ± 0.45 |
| QFSDEVEPATPEEGEPATQRQDPA [GAGE1] | 5.6 ± 0.11 | 5.57 ± 0.096 |
| QGDPKGEMAATPAGFAQLTHLLMG [HDAC6] | 3.1 ± 0.16 | 3.06 ± 0.14 |
| QGGSLPSEEKGHPQEESEESNVSM [CHGB] | 5.59 ± 0.24 | 5.53 ± 0.25 |
| QGPGGDEDDDEEDTDKLLNSASDP [PSD2] | 5.59 ± 0.26 | 5.54 ± 0.21 |
| QIITSLVFHLPFYSSNQLHHFFCD [OR10K2] | 2.8 ± 0.094 | 3.02 ± 0.21 |
| QKEVLPSMRKIVATWMLEVCEEQK [CCND1] | 3.01 ± 0.27 | 3 ± 0.3 |
| QKIQFKRETASLKLLPHQPRIVEM [PDZK1] | 2.54 ± 0.39 |  |
| QKTSRSSSIPCSGSLDGRELSRQV [PPEF2] | 4.32 ± 0.23 | 4.48 ± 0.42 |
| QLGRALTAHLYSLLQTQHALGDAF [ARFIP2] | 3.25 ± 0.2 | 3.47 ± 0.57 |
| QLKIRKSNQIPTEVRSKAEEVVSF [FUNDC2] | 3.9 ± 0.45 | 3.88 ± 0.25 |
| QLQCSPAELQAELLHSQARLAELE [FBF1] | 3.88 ± 0.41 | 3.98 ± 0.26 |
| QLRFQHSQDVSDCYLELFPAHLYF [PLEKHN1] | 2.32 ± 0.54 | 2.27 ± 0.28 |
| QLTEKLARVNENLARKIASRNEFD [SSNA1] | 2.85 ± 0.18 | 3.24 ± 0.39 |
| QMPKFDLGPLLSEPLVLYNQNLSN [MYOZ1] | 3.15 ± 0.1 | 3 ± 0.11 |
| QPKKNNVMARTRLVVPNKGYSSLD [FAM219A] | 3.85 ± 0.3 | 4.07 ± 0.27 |
| QPRGGVSSRIEQGEWGGRHPSWPW | 2.99 ± 0.44 | 3 ± 0.68 |
| QQELETLPTTKMAQTNPTPGSLGP [CRYBA1] | 5.15 ± 0.1 | 5.09 ± 0.13 |
| QQFRADPSTASLLLCPGGLDHKLN [TIAF1] | 3.48 ± 0.28 | 3.58 ± 0.34 |
| QRALHKYSLMKRQMMSATAQNREP [SNX8] | 3.24 ± 0.29 | 3.32 ± 0.18 |
| QSFREQEEPSNKRVRPLARVTSLA [NET1] | 4.21 ± 0.17 | 4.23 ± 0.097 |
| QSSHYLQWILDKQDLLKERQKDLK [CCNC] | 2.87 ± 0.36 | 3.16 ± 0.27 |

| Sequence | protein stability index (treatment: DMSO) | protein stability index (treatment: MLN4924 1 uM, 8 h) |
| --- | --- | --- |
| QTPILEGRSGPGCAVLDDSIYLVG [KLHL14] | 2.7 ± 0.23 | 2.63 ± 0.28 |
| QVLNETRNQYEALVETNRREVEQW [KRT33B] | 4.24 ± 0.43 | 4.5 ± 0.17 |
| QWWASVGMDDFLGVYSMPAGTKVF [TLE6] | 2.23 ± 0.82 | 2.26 ± 0.45 |
| RAGPDSAGIALYSHEDVCVFKCSV [CARM1] | 2.35 ± 0.47 | 2.06 ± 0.41 |
| RALQEEERAAAQARRELQAEREAL [ZBED3] | 5.36 ± 0.19 | 5.45 ± 0.18 |
| RALQERLGQQQRDMRRDEEGSLCA [FBF1] | 4.95 ± 0.36 | 5.03 ± 0.32 |
| RAPGAGLGQDRQVPLWGQLLLFLV [EMD] | 2.49 ± 0.17 | 2.09 ± 0.37 |
| RCYYYEDTISTIKSVAWEGGACPA [NCF4] | 2.31 ± 0.21 | 2.43 ± 0.24 |
| RDEVAFHTAKCEKLQKEKEELERR [MTUS2] | 5.61 ± 0.17 | 5.44 ± 0.33 |
| RDRQQAPGLGQESKAPGSCDPGTD [TLE6] | 5.45 ± 0.12 | 5.46 ± 0.16 |
| REHCPENRERVVSLIEDLQRELEI [ZNF449] | 3.91 ± 0.21 | 4 ± 0.28 |
| REIEELLAEAKYYLVQGLVEECQA [KCTD10] | 2.02 ± 0.34 | 2.16 ± 0.25 |
| RELDAISTNEEEKEENEAESDVKH [PRIM1] | 5.57 ± 0.17 | 5.62 ± 0.24 |
| REQADSCREQLDIMNDLSNRVWSI [TRIM14] | 2.23 ± 0.11 | 2.28 ± 0.46 |
| RFGQTIQSFTLRGDHRSPASAQKF [NET1] | 3.14 ± 0.27 | 3.27 ± 0.32 |
| RFPLDSAQDPDVGTNTVSFYTLSP [PCDHGC5] | 3.68 ± 0.15 | 3.88 ± 0.12 |
| RFVQAEGRRATLQRLVEALEENEL [TRADD] | 3.57 ± 0.39 | 3.62 ± 0.37 |
| RGEGIQAPSFSSYLYFLFCPTLIY [SOAT2] | 3.49 ± 0.45 | 3.36 ± 0.69 |
| RGFVFGGRYRDARMNDLHYLNLDT [KLHDC2] | 2.71 ± 0.33 | 2.59 ± 0.35 |
| RGKLKKTEEELRRIQTQKEQAKEN [ZC2HC1C] | 5.31 ± 0.13 | 5.39 ± 0.13 |

From the supplement of paper PMC10567573
